Test results published in article PMC10006087, “The TINCR ubiquitin-like microprotein is a tumor suppressor in squamous cell carcinoma” (Nature Communications, 2023).

Biological target: the molecule itself
Assay: crystal structure; micro-batch under oil at 4 °C with seeding; 0.1 M magnesium sulfate heptahydrate, 0.1 M sodium acetate pH 5, 20% (w/v) PEG 1000; space group P4(3)2(1)2; 2.12 Å; two protomers in the asymmetric unit

B1: human TINCR protein (natural protein, UniProt A0A2R8Y7D0 1-87, looked up)
chain: MEGLRRGLSRWKRYHIKVHLADEALLLPLTVRPRDTLSDLRAQLVGQGVSSWKRAFYYNARRLDDHQTVRDARLQDGSVLLLVSDPR
notes: TINCR ubiquitin-like microprotein, human; The N-terminal 15-residue cap is visible in protomer A only; also called TINCR ubiquitin-like microprotein; TINCR recombinant protein
B1: binds.
